Source: publication doi:10.1101/2021.12.28.474374 (bioRxiv, 2021)

Molecular target: T1, Ctc1 OB-A (residues 1-183) (Tetrahymena, UniProt A0PGB2 1-183)
T1 sequence (looked up): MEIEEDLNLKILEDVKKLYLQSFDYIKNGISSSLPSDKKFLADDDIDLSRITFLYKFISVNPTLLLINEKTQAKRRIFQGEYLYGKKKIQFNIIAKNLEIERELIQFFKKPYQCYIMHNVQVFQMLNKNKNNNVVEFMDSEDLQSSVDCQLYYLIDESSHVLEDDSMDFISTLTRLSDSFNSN
Experiment: NMR titration

stoichiometry N: 1
Binder: CQQDDFGDGCLLQIVNYTHQSLK (peptide, UniProt D2CVN8 228-250, looked up) [p50 peptide (residues 228-250)]
